Assay results published in patent US20160272683A1 (Novo Nordisk, published 2016).
Numbered stars: 1 amine (or outer) side, 2 acyl side, 3 side chain; on linkers, the order of the positions; unused ones are H or OH. * marks the point of attachment. C20 diacid = O=C(O)CCCCCCCCCCCCCCCCCCC(=O)*; C18 diacid = O=C(O)CCCCCCCCCCCCCCCCC(=O)*; γGlu = O=C(O)[C@H](CCC(=O)[*:2])N[*:1]; AEEA = NCCOCCOCC(=O)O

T1: human amylin 3(a) receptor (human calcitonin receptor co-expressed with RAMP-3) (human, UniProt P30988 25-474; O60896 24-148, limits assumed)
T1 sequence (looked up) 1: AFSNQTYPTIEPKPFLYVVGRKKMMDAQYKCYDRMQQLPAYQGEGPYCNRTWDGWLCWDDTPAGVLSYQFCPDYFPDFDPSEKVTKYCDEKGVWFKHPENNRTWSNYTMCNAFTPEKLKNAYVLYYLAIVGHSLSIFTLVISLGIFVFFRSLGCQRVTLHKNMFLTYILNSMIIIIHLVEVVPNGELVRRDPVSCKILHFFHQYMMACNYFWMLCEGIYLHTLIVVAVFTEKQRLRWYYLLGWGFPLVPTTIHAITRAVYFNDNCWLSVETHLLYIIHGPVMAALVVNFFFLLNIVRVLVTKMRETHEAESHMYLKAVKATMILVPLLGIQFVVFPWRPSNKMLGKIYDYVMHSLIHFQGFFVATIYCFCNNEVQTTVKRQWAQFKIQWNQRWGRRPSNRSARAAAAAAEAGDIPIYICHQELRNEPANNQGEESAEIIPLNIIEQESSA
T1 sequence (looked up) 2: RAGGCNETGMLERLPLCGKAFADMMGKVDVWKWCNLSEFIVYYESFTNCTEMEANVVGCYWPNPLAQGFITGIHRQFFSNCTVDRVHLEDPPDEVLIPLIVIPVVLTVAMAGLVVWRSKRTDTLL

T2: human calcitonin receptor (human, UniProt P30988 25-474)
T2 sequence (looked up): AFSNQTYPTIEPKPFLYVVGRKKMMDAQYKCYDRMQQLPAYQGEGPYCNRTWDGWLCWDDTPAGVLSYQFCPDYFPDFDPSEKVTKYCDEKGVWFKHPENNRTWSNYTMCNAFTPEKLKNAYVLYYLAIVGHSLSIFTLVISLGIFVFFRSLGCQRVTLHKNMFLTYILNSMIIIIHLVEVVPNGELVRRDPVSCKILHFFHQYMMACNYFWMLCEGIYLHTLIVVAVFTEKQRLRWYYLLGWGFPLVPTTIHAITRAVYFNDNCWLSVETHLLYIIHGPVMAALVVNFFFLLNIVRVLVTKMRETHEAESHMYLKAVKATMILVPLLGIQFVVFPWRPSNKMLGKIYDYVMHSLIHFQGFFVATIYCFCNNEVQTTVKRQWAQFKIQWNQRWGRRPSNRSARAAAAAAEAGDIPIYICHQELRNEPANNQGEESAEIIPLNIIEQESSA


Columns and labels:
[1] = biological target: T1, human amylin 3(a) receptor (human …); assay: cell-based or functional assay
[2] = biological target: T2, human calcitonin receptor; assay: cell-based or functional assay

hAmylin-R funct. EC50 (pM) [1] [pM] | hCTR funct. EC50 (pM) [2] [pM] | Binder
53 | 52 | {C20 diacid-γGlu}-ASGLSTAVLGRLSQELHELQTYPRTETGSATY-NH2 (SMILES CC(C)C[C@H](NC(=O)CNC(=O)[C@H](CO)NC(=O)[C@H](C)NC(=O)CC[C@H](NC(=O)CCCCCCCCCCCCCCCCCCC(=O)O)C(=O)O)C(=O)N[C@@H](CO)C(=O)N[C@H](C(=O)N[C@@H](C)C(=O)N[C@H](C(=O)N[C@@H](CC(C)C)C(=O)NCC(=O)N[C@@H](CCCNC(=N)N)C(=O)N[C@@H](CC(C)C)C(=O)N[C@@H](CO)C(=O)N[C@@H](CCC(N)=O)C(=O)N[C@@H](CCC(=O)O)C(=O)N[C@@H](CC(C)C)C(=O)N[C@@H](Cc1c[nH]cn1)C(=O)N[C@@H](CCC(=O)O)C(=O)N[C@@H](CC(C)C)C(=O)N[C@@H](CCC(N)=O)C(=O)N[C@H](C(=O)N[C@@H](Cc1ccc(O)cc1)C(=O)N1CCC[C@H]1C(=O)N[C@@H](CCCNC(=N)N)C(=O)N[C@H](C(=O)N[C@@H](CCC(=O)O)C(=O)N[C@H](C(=O)NCC(=O)N[C@@H](CO)C(=O)N[C@@H](C)C(=O)N[C@H](C(=O)N[C@@H](Cc1ccc(O)cc1)C(N)=O)[C@@H](C)O)[C@@H](C)O)[C@@H](C)O)[C@@H](C)O)C(C)C)[C@@H](C)O) [[N-terminal(C20 diacid-gGlu), des1, 4G, 9V, 15Q, 21Q, 23Y, 30S, 31A, 32T, 33Y]mimylin]
89 | 52 | {C20 diacid-γGlu-AEEA-AEEA}-ASGLSTAVLGRLSQELHELQTYPRTETGSGTY-NH2 (SMILES CC(C)C[C@H](NC(=O)CNC(=O)[C@H](CO)NC(=O)[C@H](C)NC(=O)COCCOCCNC(=O)COCCOCCNC(=O)CC[C@H](NC(=O)CCCCCCCCCCCCCCCCCCC(=O)O)C(=O)O)C(=O)N[C@@H](CO)C(=O)N[C@H](C(=O)N[C@@H](C)C(=O)N[C@H](C(=O)N[C@@H](CC(C)C)C(=O)NCC(=O)N[C@@H](CCCNC(=N)N)C(=O)N[C@@H](CC(C)C)C(=O)N[C@@H](CO)C(=O)N[C@@H](CCC(N)=O)C(=O)N[C@@H](CCC(=O)O)C(=O)N[C@@H](CC(C)C)C(=O)N[C@@H](Cc1c[nH]cn1)C(=O)N[C@@H](CCC(=O)O)C(=O)N[C@@H](CC(C)C)C(=O)N[C@@H](CCC(N)=O)C(=O)N[C@H](C(=O)N[C@@H](Cc1ccc(O)cc1)C(=O)N1CCC[C@H]1C(=O)N[C@@H](CCCNC(=N)N)C(=O)N[C@H](C(=O)N[C@@H](CCC(=O)O)C(=O)N[C@H](C(=O)NCC(=O)N[C@@H](CO)C(=O)NCC(=O)N[C@H](C(=O)N[C@@H](Cc1ccc(O)cc1)C(N)=O)[C@@H](C)O)[C@@H](C)O)[C@@H](C)O)[C@@H](C)O)C(C)C)[C@@H](C)O) [[N-terminal(C20 diacid-gGlu-2xOEG), des1, 4G, 9V, 15Q, 21Q, 23Y, 30S, 31G, 32T, 33Y]mimylin]
50 | 22 | {C18 diacid-γGlu-AEEA-AEEA}-ASGLSTAVLGRLSQELHELQTYPRTETGSGTY-NH2 (SMILES CC(C)C[C@H](NC(=O)CNC(=O)[C@H](CO)NC(=O)[C@H](C)NC(=O)COCCOCCNC(=O)COCCOCCNC(=O)CC[C@H](NC(=O)CCCCCCCCCCCCCCCCC(=O)O)C(=O)O)C(=O)N[C@@H](CO)C(=O)N[C@H](C(=O)N[C@@H](C)C(=O)N[C@H](C(=O)N[C@@H](CC(C)C)C(=O)NCC(=O)N[C@@H](CCCNC(=N)N)C(=O)N[C@@H](CC(C)C)C(=O)N[C@@H](CO)C(=O)N[C@@H](CCC(N)=O)C(=O)N[C@@H](CCC(=O)O)C(=O)N[C@@H](CC(C)C)C(=O)N[C@@H](Cc1c[nH]cn1)C(=O)N[C@@H](CCC(=O)O)C(=O)N[C@@H](CC(C)C)C(=O)N[C@@H](CCC(N)=O)C(=O)N[C@H](C(=O)N[C@@H](Cc1ccc(O)cc1)C(=O)N1CCC[C@H]1C(=O)N[C@@H](CCCNC(=N)N)C(=O)N[C@H](C(=O)N[C@@H](CCC(=O)O)C(=O)N[C@H](C(=O)NCC(=O)N[C@@H](CO)C(=O)NCC(=O)N[C@H](C(=O)N[C@@H](Cc1ccc(O)cc1)C(N)=O)[C@@H](C)O)[C@@H](C)O)[C@@H](C)O)[C@@H](C)O)C(C)C)[C@@H](C)O) [[N-terminal(C18 diacid-gGlu-2xOEG), des1, 4G, 9V, 15Q, 21Q, 23Y, 30S, 31G, 32T, 33Y]mimylin]
